Measured values published in publication PMC2908537.

Assays:
Assay in all cases: SPR; WT or point-mutant CRT immobilised on a biosensor chip at about 500 RU by primary amine coupling, SE 15mer peptides run as analyte; read-out RU, mean ± SEM; 25°C, 10 mM HEPES pH 7.4, 50 mM KCl, 0.5 mM CaCl2, 100 µM ZnCl2, 0.005% surfactant P-20, flow 10 µl/min
[1] = target: CRT D220A mutant, 6xHis-tagged (not stated (rabbit or mouse cDNA cloned)) (UniProt P14211)
[2] = target: CRT E217A mutant, 6xHis-tagged (not stated (rabbit or mouse cDNA cloned)) (UniProt P14211)
[3] = target: CRT E223A mutant, 6xHis-tagged (not stated (rabbit or mouse cDNA cloned)) (UniProt P14211)
[4] = target: CRT H224A mutant, 6xHis-tagged (not stated (rabbit or mouse cDNA cloned)) (UniProt P14211)
[5] = target: CRT N279A mutant, 6xHis-tagged (not stated (rabbit or mouse cDNA cloned)) (UniProt P14211)
[6] = target: CRT Y254A mutant, 6xHis-tagged (not stated (rabbit or mouse cDNA cloned)) (UniProt P14211)
[7] = target: wild-type CRT, 6xHis-tagged, from the pBAD vector (not stated (rabbit or mouse cDNA cloned)) (UniProt P14211)

RU [1] [RU] | RU [2] [RU] | RU [3] [RU] | RU [4] [RU] | RU [5] [RU] | RU [6] [RU] | RU [7] [RU] | Substance
120 | 106 | 84.6 | 128 | 145 | 113 | 128 | SE-expressing 15mer synthetic peptide 65-79*0404
70.1 | 50.9 | 56.7 | 68.2 | 106 | 66.5 | 71.2 | SE-expressing 15mer synthetic peptide 65-79*0401
